Measured values taken from the supplement of paper PMC12764529.
± gives the half width of the 95% confidence interval.

Assay: folding stability dG unfold (combined trypsin and chymotrypsin); higher = more stable
Protocol: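 Folding stability of de novo designed mini-proteins (<80 aa, no Cys; designed by TrROS, TrMRF, ProteinMPNN and the joint model) was measured by cDNA display proteolysis with trypsin and chymotrypsin. Each protease was used at 11 concentrations in a threefold dilution series plus a no-protease condition. K50 was inferred by Bayesian fitting of sequencing counts, and dG unfold was derived against a sequence-predicted unfolded-state K50 (Tsuboyama et al. method). Sequences shown include variable-length N-terminal GS-type padding (SAGGSAGG...) inside a display construct carrying a PA tag. Rows were kept only if the AF2 dimer inter-PAE was >15, to exclude likely homo-oligomers.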

Row | Sequence | folding stability dG unfold [kcal/mol]
1 | SAGGSAGGSGSMNISPNVKKFTIKSTGTEEKAKEEAEKIKNSLPKNVPIEITFEPLDPKEFKKSAGGSAGGS [r12_744_JUSTAS] | < -1
2 | SAGGSAGGSAGMTTYEGTDPEELREAVEAEAKARGVEIEITSVTTSPDGKYTLDVKVTPPSAGGSAGGSAGG [r11_304_JUSTAS] | < -1
3 | SAGGSAGGSSEKEEKIRNIIKENFPENVIKKVEFNNDIVKIYGIPEYVKKAKEKLGSKNFIENSAGGSAGGS [r12_748_TrMRF] | < -1
4 | SAGGEGEELIIPSSFPLEKIEELEKAHPDAKAEIVEINLRGPVLLPGGGVRPVPSFLKVRLYRREERSAGGS [r8_172_TrMRF] | < -1
5 | SAGGSAPPKIDIDVEPNPEEGYYRVTVEFPDGWPLKIPYPYPDPEDNKRNAKKHVKWILKKHEELLSAGGSA [r15_477_TrROS] | < -1
6 | SAGGSAGGSAGGWYISIEPKNKKEKTIMIPPGDPDILEELADNGDRVSIFDPKNGKEFKVSAGGSAGGSAGG [r7_430_TrROS] | < -1
7 | SAGGSAGGSAGGGHMIYVPPSATLEEAEKLAKELGIEDAEIIPVPEGEPLFFTPEWKLVSAGGSAGGSAGGS [r10_1083_JUSTAS] | < -1
8 | SAGGGSSMSPISDQQTSSSLPDGTTVTRTTTTYPTSVLVTTTTTDPATGAPTTTTTTYTTPGSSVAGSAGGS [r16_419_JUSTAS] | < -1
9 | SAGGSAGGSAGGSPEELAAAIRAEGREAEIEVTPDEVTIRLTAPDGRRSTLTVPRAALASAGGSAGGSAGGS [r10_1029_JUSTAS] | < -1
10 | SAGGSAGGSAGKIRIDARPNGNWRAHYPGGKEHEFNSPDDIKDELEKKFPNFDIIEIEPWSAGGSAGGSAGG [r11_806_TrROS] | < -1
11 | SAGGSAGGSAGGMELPNLVPVETVPVGDSTVRLYELPGKPLRVTVTENGDNVTVELEEPPSAGGSAGGSAGG [r7_940_JUSTAS] | < -1
12 | SAGGSAGGSAGGTIKELAKEAAKKNPGWVPIRIPLPNGNPWKIRVQVDEPGKNRIEIEPSAGGSAGGSAGGS [r10_395_TrROS] | < -1
13 | SNAKDLARELFEEHGYPIEPESIDPDEDWVTFRFEPPGEPPYDISIDVDPEEGKLKVTIDPQNGYITIPVSA [r9_1119_TrROS] | < -1
14 | SAGGVSIEKDVTSSDELLAALPPDRPVRIEYTPPDGSSRELEVDPADLSLDIPAGVKYKVRIEVLPPESAGG [r13_461_JUSTAS] | < -1
15 | SAGGSAGGSAGGPERLVLASFIPGPRLLHVVEVSLDGVGASISPSVFSIHPDRPDEIEPVSAGGSAGGSAGG [r7_866_TrMRF] | < -1
16 | SVVTPYPDGTVVETEPVGDTVLRLVRRPRPLPGGEPVERTTVVLEPVSTRPLPNGELVTERPVLEEEHHHSA [r9_235_JUSTAS] | < -1
17 | SAGGSAGGSAGGSMKISLEFKVPIYEEFPGKEKPVEEVEVPVEVPENNEEEAEKIKKELSAGGSAGGSAGGS [r4_153_JUSTAS] | < -1
18 | SAGGEFKLKREEDPDGERKITLEFPGWPYEVVIPKNAKDLPPGNPIYVRGGGGTRTMPIKDLLPELLNSAGG [r13_97_TrROS] | < -1
19 | SAGGSAGGSAGGPTVTYKPPSGNVRTVEVPASRPEVVAELKAAGGEVVVVDAETGEEVLLSAGGSAGGSAGG [r7_430_JUSTAS] | < -1

Row | Sequence | folding stability dG unfold [kcal/mol]
20 | SAGGSAGGEKPLKVTIKVKEKRLTENGIPEEFEKEIVVEAPLEEATKLVKAIPKDKVVSVEVEGSAGGSAGG [r6_984_TrMRF] | < -1
21 | SAGGSAGGSAKKIEIDPERDPNGMHLVEVTRRDPGNGKKKDIPFNVNPGKMTPEEIKDLAKSAGGSAGGSAG [r3_127_TrROS] | < -1
22 | SAGGSAGGSTVPQSLPDSTATISSGPGGTWTVTFYPDEGSRTLTLPRSVVDASPVPLTELVSSSAGGSAGGS [r20_90_JUSTAS] | < -1
23 | SAGGSAGGSAMPVVEIGLEMEPYEPEAGGKLMLVPIKDNLLPEHALAAARLLEPLGVVTAPSAGGSAGGSAG [r3_157_TrMRF] | < -1
24 | SAGGMSIRELLKEKGIPIKVENEPTDGRPRMKITIQDNDKPVKIDMPMDDPERMIRDAAKELGLKPISAGGS [r8_226_TrROS] | < -1
25 | SAGGSAGGFTFRDPENGRKITIEPQPNPDGPMYYNIEVRDPDNNENKTINFPMPLNEIEDLAKDSAGGSAGG [r6_996_TrROS] | < -1
26 | SAGGSAGGSAGSMVLESEEPIPETGEPVLVKTTLSEEPGRERTIVTTYRDGKPLSTTVELSAGGSAGGSAGG [r11_631_JUSTAS] | < -1
27 | SAGGSAGGSAKIKVEWEQHPEGYNLVKVEIPNPDNGKKKKVEGPFDSLEDAEDEAKELLKKSAGGSAGGSAG [r3_174_TrROS] | < -1
28 | SAGGSAGGSKLPDGPYKIRMPHNGRPYEMPIRVTSDGMIEVRMPGEGKKRTFPLNQAEIEPLDSAGGSAGGS [r12_782_TrROS] | < -1
29 | SAGGSAGGPVIPTPSDLVVEVGKLSEELSFLSKSVRPNGPEELVFDSSVLVEEGVKVLKPSDRRSAGGSAGG [r6_586_JUSTAS] | < -1
30 | SAGGSAGGSAGGKIEVEEDPANGMYRVEIQFPENGKPIEVWVRPGRTLEKAKDKAKELMKSAGGSAGGSAGG [r7_138_TrROS] | < -1
31 | SAGGSAGGSAGGGPGLSVTTTVLVPKDPSTSVLTVPLPPSATVTAVTPETNTVTVRTASSAGGSAGGSAGGS [r10_247_JUSTAS] | < -1
32 | SAGGSAGGSAGNIEVNGDRIKIRFEGGHEFTFPNLPPGKPIEFKFNNQPFRIRDVEVEPPSAGGSAGGSAGG [r11_16_TrROS] | < -1
33 | SAGGSAGGSAGGSVKTPEGVEVAPDEPVEERVEHPPVARPVKVTLYALPNSNEYSEEIASAGGSAGGSAGGS [r4_13_JUSTAS] | < -1
34 | SAGGKPMIHINMEENPNGNPYMRVQVMRMDPKNNGWKPVEEVRFDSPQDMRDEAKELADKEGVYLMISAGGS [r16_512_TrROS] | < -1
35 | PIITVSSLEELKKAIKELVEKIVEEAKKAGYPDKKVIVSIPVVLIDEKTGKPKILPILIEIYPDGTVKIYGS [r1_316_TrMRF] | > 6
36 | SAGGVDLSTLPSNSTVTLTEEKVIPVTKGSPKGSGKGYIETTTTTYTAVPPTGTWLSTTTPSISIIESAGGS [r8_486_JUSTAS] | < -1
37 | SAGGSAGGSAMPEEEKPPIVRTVVLQADGEPIVLTSKPDEEIKLPPSLANAVVLEEEVSPGLSAGGSAGGSA [r18_415_JUSTAS] | < -1
38 | PINPEIAEKLKVAIANKLKEAGYKVKSVSISPLPDGTISGKVGDKTVTLPLPNGGTAGISVEAEKVSPEEAS [r1_31_TrMRF] | < -1

Row | Sequence | folding stability dG unfold [kcal/mol]
39 | SAGGSAGGSAGSPPDQTVTITTTVVTTETTTYPGTPGVTVPRTVVTTVPVTLPVTDPALLSAGGSAGGSAGG [r11_734_JUSTAS] | < -1
40 | SAGGSAGGSARDALKNIKHVEIEHNPPNNRGTIRIQPPNGKQIKFEFDSPNELLKKAGIEPSAGGSAGGSAG [r3_36_TrROS] | < -1
41 | SDAIKNQTIEELLDQLPPGDEPGEPKEFTIPGYEIKITDFEPEKDDGGGPRPRRVIEVEDPNGPIEIPIESA [r9_279_TrROS] | < -1
42 | SAGGSAGGSAGGNKIVIPFEELEEARENGDPHKARKLVRERGMDPEDVTIEIITPEALKESAGGSAGGSAGG [r7_7_TrROS] | < -1
43 | SAGGSAGGSAGPDDFVTLTETIVEEIDPNLAELPPEVAERLVKEGVKVIEKVLTKVAPPSLLSAGGSAGGSA [r18_127_JUSTAS] | < -1
44 | SANKFSPEEYAEWMIRTARRQVKENRQQGDPEKPKKVTIHFWEEHFPPYRKRIKKEAKEDGLPVEIEPPSAG [r14_908_TrROS] | < -1
45 | SAGGSARWMEYQIPFKSPQKREKLKEALMEHPGISEVDWPPNGTINITIPRDNPNRIKKAAKKAGFSAGGSA [r15_834_TrROS] | < -1
46 | SAGGSAGGSAGGQPITLPDANNGFKEVEIMPTPKKWRITAENPETGQKKEFPIEDPEAVSAGGSAGGSAGGS [r10_772_TrROS] | < -1
47 | SAGGSAGGMKITEVTSEAPVPETGEVVRVAKTEDGSTITTVEYPGTGETRVYREKPDEVTPIALSAGGSAGG [r6_796_JUSTAS] | -0.865 ± 0.79
48 | SAGGSGMNITVEPVLSPDGTLTVTTTDPATGKTVSTTTTPVPRGPLPPPVRPLLGLDDRNGRPLLLSAGGSA [r2_78_JUSTAS] | < -1
49 | SAGGSAGGSAGKTIMIRDPEALKKLPENQKIRIPDGKPFKIKKVEYVEENGWHRFTIKPESAGGSAGGSAGG [r11_316_TrROS] | < -1
50 | SAGGSAGGSAGYIMIKSPEMAEEMAKPGYEIEVEPVPPKDINNGDPNDTMYIIEIKPPGKSAGGSAGGSAGG [r11_168_TrROS] | < -1
51 | SAGGSAGGSAGGSGSMEPQVVLRVTDTRGGNPTVTIYSPDVPLPPSPTTTVEPRPVSLESAGGSAGGSAGGS [r4_107_JUSTAS] | < -1
52 | SAGGSAGGSAGGRGVLLVFRLDGEVRPTPDGEPVLELTDLEVEEREVTVTRDADGVLHAGSAGGSAGGSAGG [r11_381_TrMRF] | < -1
53 | SAGGSAEKPIPFGNYQIRIHEIDPKEGKITIHVPDNMPPNMKEQARDWLQERGLPIEVEPVPAEDISAGGSA [r15_570_TrROS] | < -1
54 | SAGGSAGGSAGGKIEVDVETERHDGRPYYEVEIRHPDNGKPVEIPMPMNNPEEALKAAKSAGGSAGGSAGGS [r10_271_TrROS] | < -1
55 | SAGGSAGGSAGGSMVAYITTKGKKLEIEVPEDLPEEIKEELKKKGIPIESITFEEVEPESAGGSAGGSAGGS [r10_405_JUSTAS] | < -1
56 | SAGGSAGGSAGGGKVYVFRAPDALVLVPVEENPDTDEFTVTVDPGGDDPDIAKKLAEALSAGGSAGGSAGGS [r10_582_TrMRF] | < -1
57 | SAGGSAGGSAGGSPMLLVRVKKTNKWISLEEALEEAEKKGEEIEIEEVEVVELPPGQEPSAGGSAGGSAGGS [r4_479_TrROS_Hall] | < -1
